Columns and labels:
[1] = target: full-length human Neu3 tagged at the C-terminus with a c-Myc epitope (human); assay: non-reducing SDS-PAGE with Western blot; total homogenates of NEU3-transfected CHO-K1 cells separated by SDS-PAGE with or without 5% beta-mercaptoethanol; blotted with anti-Neu3 antibody
[2] = target: caveolin-1 (Chinese hamster (endogenous in CHO-K1)); assay: cross-linking; intact CHO-K1 cells, 0.5 mM membrane-permeable DSP, room temperature, 45 min, quenched with 50 mM glycine; SDS-PAGE and Western blot; cross-link reversed by beta-mercaptoethanol
[3] = target: GPI-YFP, a fusion protein containing the total sequence of YFP fused to a glycosylphosphatidylinositol (GPI)-membrane attachment signal; assay: cross-linking; intact CHO-K1 cells, 2 mM membrane-impermeable BS3, 4 °C, 45 min, quenched with 50 mM glycine; SDS-PAGE and Western blot

Q: With “full-length human Neu3 tagged at the C-terminus with a c-Myc epitope (enzyme)” as the substance, how does the percent of the total enzyme in the ~125 kDa band [1] read?
A: 25%

Q: And the stoichiometry N [1]?
A: 2

Q: For caveolin-1 (natural protein), which stoichiometry N [2] is on record?
A: 2

Q: With “GPI-YFP, a fusion protein containing the total sequence of YFP fused to a glycosylphosphatidylinositol (GPI)-membrane attachment signal” as the substance, how does the stoichiometry N [3] read?
A: 2

Reference: article PMC5482835
